# According to patent publication US20070020327A1:
# Assays:
# HLA-A*0201 (human) [1] = assay: inhibition of 125I probe peptide binding to purified HLA, gel filtration; ratio = IC50 standard/IC50 test; conditions: remark: other sources report otherwise
# HLA-A*0202 (human) [2] = assay: as above; conditions: remark: other sources report otherwise
# HLA-A*0202 (human) [3] = assay: competition binding to purified HLA, 125I-labelled standard peptide, gel filtration; ratio = IC50 standard / IC50 test peptide
# HLA-A*0201 (human) [4] = assay: competition with 125I-labeled probe peptide for purified HLA, gel filtration
# HLA-A*0206 (human) [5] = assay: as above
# HLA-A*6802 (human) [6] = assay: as above
# HLA-A*0301 (human) [7] = assay: competition with 125I-labelled standard peptide for purified HLA, gel filtration; conditions: scale: ratio
# HLA-A*1101 (human) [8] = assay: as above; conditions: scale: ratio
# HLA-A*0301 (human) [9] = assay: competition with 125I-labelled standard peptide for purified HLA-A*0301, gel filtration
# HLA-A*1101 (human) [10] = assay: competition with 125I-labelled standard peptide for purified HLA-A*1101, gel filtration; ratio to the A*1101 standard peptide 940.06 [..] (6.0 nM)
# HLA-A*1101 (human) [11] = assay: competition with 125I-labelled standard peptide for purified HLA-A*1101, gel filtration; standard 940.06 [..] (6.0 nM)
# HLA-A*0201 (human) [12] = assay: competition with 125I standard peptide for purified HLA; gel filtration
# HLA-A*0202 (human) [13] = assay: as above
# HLA-A*0203 (human) [14] = assay: as above
# HLA-A*0206 (human) [15] = assay: as above
# HLA-A*6802 (human) [16] = assay: as above
# HLA-A*0201 (human) [17] = assay: competitive inhibition of 125I-labelled standard peptide binding to purified HLA
# HLA-A*0202 (human) [18] = assay: as above
# HLA-A*0203 (human) [19] = assay: as above
# HLA-A*0206 (human) [20] = assay: as above
# HLA-A*0202 (human) [21] = assay: competition with 125I-labeled probe peptide for purified HLA, gel filtration
# HLA-A*0203 (human) [22] = assay: as above
# HLA-A*0201 (human) [23] = assay: inhibition of 125I-labelled probe peptide binding to purified HLA; gel filtration
# HLA-A*0202 (human) [24] = assay: as above
# HLA-A*0206 (human) [25] = assay: as above
# HLA-A*6802 (human) [26] = assay: as above
# [27] = target: HLA-A*0301 (purified HLA class I molecule) (human); assay: competition binding assay with purified HLA-A*0301; inhibition of 125I-labelled standard peptide 941.12 ([..], 11 nM), gel filtration
# HLA-A*0201 (human) [28] = assay: competitive inhibition of 125I-labelled standard peptide binding to purified HLA, gel filtration; ratio = IC50 standard / IC50 test peptide
# HLA-A*0203 (human) [29] = assay: as above
# HLA-A*0206 (human) [30] = assay: as above
# HLA-A*0203 (human) [31] = assay: inhibition of 125I-labelled probe peptide binding to purified HLA; gel filtration
# HLA-A*0202 (human) [32] = assay: competition for purified HLA with 125I-labelled standard peptide 941.01 [..] as competitor, gel filtration; conditions: remark: other sources report otherwise; scale: ratio
# HLA-A*0101 (human) = assay: competition with 125I-labelled standard peptide for purified HLA-A*0101, gel filtration
# HLA-A*6802 (human) [33] = assay: inhibition of 125I probe peptide binding to purified HLA, gel filtration; ratio = IC50 standard/IC50 test; conditions: remark: other sources report otherwise
# HLA-A*0201 (human) [34] = assay: competition with 125I-labelled standard peptide 941.01 for purified HLA-A*0201, gel filtration
# HLA-A*0202 (human) [35] = assay: competition with 125I-labelled standard peptide 941.01 for purified HLA-A*0202, gel filtration
# HLA-A*0206 (human) [36] = assay: competition with 125I-labelled standard peptide 941.01 for purified HLA-A*0206, gel filtration
# HLA-A*6802 (human) [37] = assay: competition with 125I-labelled standard peptide 1072.34 for purified HLA-A*6802, gel filtration
# HLA-A*0203 (human) [38] = assay: competition with 125I-labelled standard peptide for purified HLA, gel filtration; ratio = IC50 standard / IC50 test peptide; conditions: remark: other sources report otherwise
# HLA-A*0206 (human) [39] = assay: as above; conditions: remark: other sources report otherwise
# [40] = remark: other sources report otherwise
binder,measurement,setting,value
"AAHCIRNKSVI (modifications not checked) [… (PSA, position 59)]",binding affinity ratio,HLA-A*0201 (human) [1],0.001
same,binding affinity ratio,HLA-A*0202 (human) [2],0.01
"DAVKVMDL (modifications not checked) [DAVKVMDL (PSA, position 130, 8 amino acids)]",binding affinity ratio,HLA-A*0202 (human) [3],0.0003
GTPEGDLVYV (modifications not checked) [Peptide 1418.29 … (PSM.168.T2)],IC50,HLA-A*0201 (human) [4]; [40],313 nM
same,IC50,HLA-A*0206 (human) [5]; [40],40 nM
same,IC50,HLA-A*6802 (human) [6]; [40],571 nM
"SLYESWTKK (modifications not checked) [… (PSM, position 492)]",binding affinity ratio,HLA-A*0301 (human) [7],1
same,binding affinity ratio,HLA-A*1101 (human) [8],2
same,binding affinity ratio (IC50 of standard peptide / IC50 of test peptide),HLA-A*0301 (human) [9],1
same,binding affinity ratio (IC50 of standard peptide / IC50 of test peptide),HLA-A*1101 (human) [10],2
RAVCGGVLVH (modifications not checked) [PSA 43 …],binding affinity ratio (IC50 of standard peptide / IC50 of test peptide),HLA-A*1101 (human) [11]; [40],0.031
QDLFGIWSK (modifications not checked) [PAP 200 …],binding affinity ratio (IC50 of standard peptide / IC50 of test peptide),HLA-A*1101 (human) [11],0.0008
LLSNDMCARV (modifications not checked) [Peptide 1418.53 … (HuK2.178.V10)],IC50,HLA-A*0201 (human) [12]; [40],5.3 nM
same,IC50,HLA-A*0202 (human) [13]; [40],0.7 nM
same,IC50,HLA-A*0203 (human) [14]; [40],4.3 nM
same,IC50,HLA-A*0206 (human) [15]; [40],10 nM
same,IC50,HLA-A*6802 (human) [16]; [40],1700 nM
"FLTLSVTWIGV (modifications not checked) [Peptide 63.0186, … (PSA.3.V11)]",IC50,HLA-A*0201 (human) [17],6.8 nM
same,IC50,HLA-A*0202 (human) [18],3 nM
same,IC50,HLA-A*0203 (human) [19],18 nM
same,IC50,HLA-A*0206 (human) [20],65 nM
VLAGGFFLV (modifications not checked) [Peptide 1389.20 … (PSM.27.V9)],IC50,HLA-A*0201 (human) [4],26 nM
same,IC50,HLA-A*0202 (human) [21],0.4 nM
same,IC50,HLA-A*0203 (human) [22],5 nM
same,IC50,HLA-A*0206 (human) [5],57 nM
LVCNGVLQGV (modifications not checked) [Peptide 1418.55 … (HuK2.217.V10)],IC50,HLA-A*0201 (human) [12],10 nM
same,IC50,HLA-A*0202 (human) [13],2.9 nM
same,IC50,HLA-A*0203 (human) [14],12 nM
same,IC50,HLA-A*0206 (human) [15],5.6 nM
same,IC50,HLA-A*6802 (human) [16],3.5 nM
GVSIWNPILV (modifications not checked) [peptide 63.0041 (PAP.128.V10)],IC50,HLA-A*0201 (human) [23]; [40],250 nM
same,IC50,HLA-A*0202 (human) [24]; [40],94 nM
same,IC50,HLA-A*0206 (human) [25]; [40],451 nM
same,IC50,HLA-A*6802 (human) [26]; [40],2290 nM
"DTFPTDPIK (modifications not checked) [PAP peptide … (position 51, 9 amino acids)]",binding affinity ratio (IC50 of standard peptide / IC50 of test peptide) (ratio to standard peptide),[27],0.0001
"DTGQRVPV (modifications not checked) [DTGQRVPV (Kallikrein, position 85, 8 amino acids)]",binding affinity ratio,HLA-A*0202 (human) [3],0.0001
"VLGLPTQEPAL (modifications not checked) [… (Kallikrein, position 138)]",binding affinity ratio,HLA-A*0201 (human) [28],-0.0001
same,binding affinity ratio,HLA-A*0203 (human) [29],0.0003
same,binding affinity ratio,HLA-A*0206 (human) [30],0.0003
PSKAWGEVKR (modifications not checked) [PSM 721 …],binding affinity ratio (IC50 of standard peptide / IC50 of test peptide),HLA-A*1101 (human) [11],0.0002
"VLTAAHCL (modifications not checked) [VLTAAHCL (Kallikrein, position 60)]",binding affinity ratio,HLA-A*0201 (human) [28],0.0002
same,binding affinity ratio,HLA-A*0203 (human) [29],0.0001
same,binding affinity ratio,HLA-A*0206 (human) [30],0.0001
TVSGLQMAV (modifications not checked) [peptide 60.0213 (PAP.292.V9)],IC50,HLA-A*0201 (human) [23],294 nM
same,IC50,HLA-A*0202 (human) [24],12 nM
same,IC50,HLA-A*0203 (human) [31],122 nM
same,IC50,HLA-A*0206 (human) [25],195 nM
same,IC50,HLA-A*6802 (human) [26],5.7 nM
LMYSLVHNL (modifications not checked) [Peptide 1126.14 … (PSM.469)],IC50,HLA-A*0201 (human) [4],64 nM
same,IC50,HLA-A*0202 (human) [21],0.4 nM
same,IC50,HLA-A*6802 (human) [6],320 nM
"IALSVGCTGA (modifications not checked) [… (Kallikrein position 8, 10-mer)]",binding affinity ratio,HLA-A*0202 (human) [32],0.05
KVTEFMLCV (modifications not checked) [Peptide 1418.21 … (HuK2.191.V9)],IC50,HLA-A*6802 (human) [16]; [40],6670 nM
"RNETQHEPY (modifications not checked) [… (PAP, position 332)]",binding affinity ratio (IC50 of standard peptide / IC50 of test peptide),HLA-A*0101 (human),0.0002
same,binding affinity ratio (IC50 of standard peptide / IC50 of test peptide),HLA-A*1101 (human) [10],0.0002
"ALSVGCTGA (modifications not checked) [… (Kallikrein, position 9)]",binding affinity ratio,HLA-A*6802 (human) [33],-0.0001
"EIASKFSER (modifications not checked) [PSM peptide … (position 641, 9 amino acids)]",binding affinity ratio (IC50 of standard peptide / IC50 of test peptide) (ratio to standard peptide),[27],0.0006
"SLLSLYGIH (modifications not checked) [… (PAP, position 242)]",binding affinity ratio (IC50 of standard peptide / IC50 of test peptide),HLA-A*0301 (human) [9],0.0006
same,binding affinity ratio (IC50 of standard peptide / IC50 of test peptide),HLA-A*1101 (human) [10],0.0002
MMNDQLMFL (modifications not checked) [Peptide 1126.01 … (PSM.663)],IC50,HLA-A*0202 (human) [21],0.8 nM
same,IC50,HLA-A*0203 (human) [22],1.7 nM
same,IC50,HLA-A*0206 (human) [5],7.6 nM
same,IC50,HLA-A*6802 (human) [6],195 nM
LLWQPIPVHV (modifications not checked) [Peptide 1419.69 … (PAP.136.V10)],IC50,HLA-A*0201 (human) [12],25 nM
same,IC50,HLA-A*0202 (human) [13],1.8 nM
same,IC50,HLA-A*0203 (human) [14],17 nM
same,IC50,HLA-A*6802 (human) [16],60 nM
"RLSEPAKI (modifications not checked) [RLSEPAKI (Kallikrein, position 125)]",binding affinity ratio (IC50 of standard peptide / IC50 of test peptide),HLA-A*0201 (human) [34],-0.0001
same,binding affinity ratio (IC50 of standard peptide / IC50 of test peptide),HLA-A*0202 (human) [35],0.0005
same,binding affinity ratio (IC50 of standard peptide / IC50 of test peptide),HLA-A*0206 (human) [36],-0.0001
same,binding affinity ratio (IC50 of standard peptide / IC50 of test peptide),HLA-A*6802 (human) [37],-0.0001
"QVAVYSHGWA (modifications not checked) [Kallikrein (hK2) peptide …, position 39, 10 amino acids]",binding affinity ratio (ratio to standard peptide),HLA-A*0203 (human) [38],0.02
same,binding affinity ratio (ratio to standard peptide),HLA-A*0206 (human) [39],0.0005
"MLLRLSEPAEV (modifications not checked) [Peptide 1389.12, … (PSA.118.V11)]",IC50,HLA-A*0203 (human) [19]; [40],115 nM
"DVLLSYPNK (modifications not checked) [PSM peptide … (position 114, 9 amino acids)]",binding affinity ratio (IC50 of standard peptide / IC50 of test peptide) (ratio to standard peptide),[27],0.0006
